B1: Nb21 (VHH)
VHH: QVQLVESGGGLVQAGGSLRLSCAVSGLGAHRVGWFRRAPGKEREFVAAIGANGGNTNYLDSVKGRFTISRDNAKNTIYLQMNSLKPQDTAVYYCAARDIETAEYTYWGQGTQVTVSS
B2: Nb36 (VHH)
VHH: VQLVESGGGLVQAGGSLTLTCAASGRTFSSETMDMGWFRQAPGKEREFVAADSWNDGSTYYADSVKGRFTISRDSAKNTLYLQMNSLKPEDTAVYYCAAETYSIYEKDDSWGYWGQGTQVTVS
B3: Nb17 (VHH)
VHH: HVQLVESGGGLVQAGGSLRLSCAASGSIFSSNAMSWYRQAPGKQRELVASITSGGNADYADSVKGRFTISRDKNTVYPEMSSLKPADTAVYYCHAVGQEASAYAPRAYWGQGTQVTVSS

Each binder was assayed against SARS-CoV-2 spike receptor-binding domain (RBD), wild type (SARS-CoV-2, Wuhan-Hu-1 (wild type), UniProt P0DTC2) (assay: cryo-EM structure).
B1: binds.
B2: binds.
B3: binds.

From article PMC7987009 (bioRxiv, 2021)
